Bridge positions count the residues as written; N and C are the ends. Square brackets hold non-standard residues; d marks the D form. Ends that are not written are not given here. * marks the point of attachment. Palmitoyl = CCCCCCCCCCCCCCCC(=O)*; Myristoyl = CCCCCCCCCCCCCC(=O)*; Nle = CCCC[C@H](N)C(=O)O; Octanoyl = CCCCCCCC(=O)*

Here are results for eight molecules from patent EP4176934A1, “LIPIDIZED COCAINE- AND AMPHETAMINE-REGULATED TRANSCRIPT PEPTIDE ANALOGUES AS ANTI-OBESITY AND NEUROPROTECTIVE AGENTS” (Ustav organicke chemie a biochemie AV CR, v.v.i., priority 2021, dated 2023).

For data set [1], the target named is CARTp binding site in PC12 cells (prospective CARTp receptor) (rat). Nature of the data set: displacement of 125I-CART(61-102) from PC12 cells; range told of the group, this end tied by Table 2. (Displacement assays read how much labelled ligand stays bound in the presence of the test substance.)
Data set [2] shares this target. Description: displacement of 125I-CART(61-102) from PC12 cells, Cheng-Prusoff.
Data set [3] has the same target. Nature of the data set: displacement of 125I-CART(61-102) from PC12 cells, relative to CART(61-102).
The nature of data set [4]: Stability in rat plasma measured by ELISA. Type of data set: in vitro ADME. The settings on record: 100 ng.ml^-1, 37 °C, 96 hours, EDTA plasma, compared to CART 2S-S. The protocol: Blank rat pooled EDTA plasma was conditioned in an incubator at 37 °C. Plasma was preheated to reach required temperature and then it was spiked with a solution of CART 2S-S and palm-CART analogues (dissolved in aqueous 0.5% formic acid) to a final concentration 100 ng.ml^-1. Duplicates were taken for ELISA analysis, sampling volume was 50 µL. Samples were immediately transferred to -20 °C.
ELISA kit for CARTp (MyBioSource, San Diego, CA, USA) was used in accordance with manufacturer's directions. In addition, external calibration using palm-CART was used. The rat plasma was applied for the calibration to comprise specific influence of different matrices on the immunoanalysis output.
On the technique in general: In an ELISA, binding on a coated surface is turned into a signal by an enzyme label.

Data set [5] addresses CARTp binding site in PC12 cells (prospective CARTp receptor) (rat). Description: Kd of the radioligand on PC12 cells, used in the Cheng-Prusoff equation; how it was measured is not stated.
The target is the same in data set [6]. Description: radioligand binding on PC12 cells, 10^-10 M tracer.

The term Ki denotes the dissociation constant of the complex between target and ligand, obtained from inhibition or displacement. With Palm-CART [74-94, 86-101] (peptide), the Ki in data set [1] worked out at 1000 nM; in data set [2], 1090 nM. The molecule also yielded a % binding CART(61-102) in data set [3] of 0.85%.
As to “Palmitoyl-KYGQVP[Nle]ADAGEQCAVRKGARIGKLADCPRGTSCNSFLLKCL (disulfide 14-34, 28-41) [Palm-CART]”, the “stability in rat plasma” value in data set [4] is reported as “higher stability”.
Turning to KYGQVP[Nle]ADAGEQCAVRKGARIGKLADCPRGTSCNSFLLKCL (disulfide 14-34, 28-41) [CART 2S-S], the inhibition constant (Ki) in data set [2] stood at 261 nM. Besides, the % binding CART(61-102) in data set [3] was determined as 3.5%.
For Octanoyl-KYGQVP[Nle]ADAGEQCAVRKGARIGKLADCPRGTSCNSFLLKCL (disulfide 14-34, 28-41) [Oct-CART] the same measures were 76.1 nM and 12%.
Turning to KYGQVPMCDAGEQCAVRKGARIGKLCDCPRGTSCNSFLLKCL (disulfide 14-34, 8-26, 28-41) [CART(61-102)], in data set [2], the Ki came out at 9.33 nM. The same molecule had a % binding CART(61-102) in data set [3] of 100%.

B1: 125I-CART(61-102) (peptide)
peptide: KYGQVPMCDAGEQCAVRKGARIGKLCDCPRGTSCNSFLLKCL
modifications: disulfide 14-34, 8-26, 28-41; ends not checked; also: monoiodinated with 125I, residue not given here
One may read the Kd as the concentration at which binding is half-saturated. Low readings indicate tighter binding, high ones weaker binding. Turning to B1, in data set [5], the Kd was 1.49 nM. The total binding, % of the radioactivity added in data set [6] is 3 to 8%.
For Palmitoyl-KYGQVP[Nle]ADAGEQCAVRKGARIGKLADCPRGTSCNSFLLKCL (disulfide 14-34, 28-41) [Palm-CART], the inhibition constant (Ki) was determined as 1 nM in data set [1] and 1.43 nM in data set [2]. This molecule displayed a % binding CART(61-102) in data set [3] of 652%.
In data set [2], Myristoyl-KYGQVP[Nle]ADAGEQCAVRKGARIGKLADCPRGTSCNSFLLKCL (disulfide 14-34, 28-41) [Myr-CART] returned a Ki of 12.1 nM. Further, the % binding CART(61-102) in data set [3] stood at 78%.
